Values joined by “and” are separate entries in the source; they are usually repeats but may differ in a detail not shown here. Identical values can stand only once. Each block holds one binder with its values, some of them ahead of it.
How the values were obtained:
[1] = target: T1, Sema E-AP fusion protein (mouse Sema E fused to alkaline phosphatase) (mouse, UniProt Q62181 21-751); experiment: AP fusion binding to transfected COS cells
T1 construct: written as in the name; Partially purified conditioned medium; not shown: secreted alkaline phosphatase of vector APtag-4
T1 sequence (looked up): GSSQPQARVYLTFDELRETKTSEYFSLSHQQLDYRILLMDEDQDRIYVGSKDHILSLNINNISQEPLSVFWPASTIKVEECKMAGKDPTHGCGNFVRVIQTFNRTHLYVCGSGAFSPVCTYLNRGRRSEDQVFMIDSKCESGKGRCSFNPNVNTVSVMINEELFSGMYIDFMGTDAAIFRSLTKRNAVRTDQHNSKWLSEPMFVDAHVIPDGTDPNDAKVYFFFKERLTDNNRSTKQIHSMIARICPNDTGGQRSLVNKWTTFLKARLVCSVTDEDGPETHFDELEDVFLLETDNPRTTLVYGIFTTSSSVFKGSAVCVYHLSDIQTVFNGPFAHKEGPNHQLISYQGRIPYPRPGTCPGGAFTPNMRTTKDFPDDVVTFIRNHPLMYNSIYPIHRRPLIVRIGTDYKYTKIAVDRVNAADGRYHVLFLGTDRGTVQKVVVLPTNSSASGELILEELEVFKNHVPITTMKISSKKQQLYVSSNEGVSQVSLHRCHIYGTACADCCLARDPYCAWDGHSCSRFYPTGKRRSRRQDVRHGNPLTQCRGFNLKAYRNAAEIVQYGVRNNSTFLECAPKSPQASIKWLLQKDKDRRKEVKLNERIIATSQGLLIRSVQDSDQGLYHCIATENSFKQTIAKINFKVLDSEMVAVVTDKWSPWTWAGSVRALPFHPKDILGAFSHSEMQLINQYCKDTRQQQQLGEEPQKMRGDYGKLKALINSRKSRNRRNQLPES

[2] = target: T2, AP fusion with Drosophila D-Sema II (Drosophila, UniProt Q24323 26-724); experiment: AP fusion binding to transfected COS cells
T2 construct: also called Drosophila Sema II; not shown: alkaline phosphatase (AP) reporter
T2 sequence (looked up): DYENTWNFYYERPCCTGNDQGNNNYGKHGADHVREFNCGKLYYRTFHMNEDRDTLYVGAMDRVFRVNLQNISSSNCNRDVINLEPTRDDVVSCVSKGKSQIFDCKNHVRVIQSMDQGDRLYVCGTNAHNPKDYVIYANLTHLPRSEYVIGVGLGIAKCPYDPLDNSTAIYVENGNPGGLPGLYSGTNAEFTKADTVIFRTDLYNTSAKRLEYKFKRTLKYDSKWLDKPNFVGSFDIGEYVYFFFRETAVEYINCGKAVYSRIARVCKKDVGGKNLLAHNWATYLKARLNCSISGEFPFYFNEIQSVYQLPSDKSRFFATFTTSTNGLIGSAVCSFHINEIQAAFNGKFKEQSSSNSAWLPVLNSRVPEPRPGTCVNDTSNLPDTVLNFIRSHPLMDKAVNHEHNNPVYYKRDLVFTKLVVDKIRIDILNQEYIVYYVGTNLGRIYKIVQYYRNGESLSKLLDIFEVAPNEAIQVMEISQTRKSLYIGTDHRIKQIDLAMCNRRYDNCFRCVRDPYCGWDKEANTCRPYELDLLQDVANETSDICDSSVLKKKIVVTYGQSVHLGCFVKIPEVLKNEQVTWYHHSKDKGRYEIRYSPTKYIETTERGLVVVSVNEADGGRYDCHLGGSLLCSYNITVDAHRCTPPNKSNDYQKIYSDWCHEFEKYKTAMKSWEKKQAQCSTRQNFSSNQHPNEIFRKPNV

[3] = target: T3, AP fusion with the ectodomain of Sema VIa (UniProt O35464 19-649); experiment: AP fusion binding to transfected COS cells
T3 construct: extracellular domain; also called Sema VIa ectodomain; not shown: alkaline phosphatase (AP) reporter
T3 sequence (looked up): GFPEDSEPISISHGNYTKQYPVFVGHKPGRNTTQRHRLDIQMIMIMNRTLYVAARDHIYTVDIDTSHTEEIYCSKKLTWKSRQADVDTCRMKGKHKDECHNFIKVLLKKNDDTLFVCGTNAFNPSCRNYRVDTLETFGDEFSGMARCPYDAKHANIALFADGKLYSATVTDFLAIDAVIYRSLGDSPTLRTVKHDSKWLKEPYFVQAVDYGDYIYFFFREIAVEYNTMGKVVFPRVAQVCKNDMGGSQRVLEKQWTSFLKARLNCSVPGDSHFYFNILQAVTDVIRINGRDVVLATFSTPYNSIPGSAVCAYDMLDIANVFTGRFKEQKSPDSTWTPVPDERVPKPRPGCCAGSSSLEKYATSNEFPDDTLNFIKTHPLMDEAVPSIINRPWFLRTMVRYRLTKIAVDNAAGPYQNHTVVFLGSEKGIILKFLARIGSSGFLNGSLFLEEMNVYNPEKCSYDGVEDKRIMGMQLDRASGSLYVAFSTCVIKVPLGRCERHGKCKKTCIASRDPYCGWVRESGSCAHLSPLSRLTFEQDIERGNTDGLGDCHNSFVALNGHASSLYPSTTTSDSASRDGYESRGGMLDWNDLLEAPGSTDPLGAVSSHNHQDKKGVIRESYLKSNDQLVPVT

[4] = target: T4, alkaline phosphatase (AP) alone (UniProt P05187 23-511); experiment: AP histochemistry on transfected COS cells
T4 construct: Control protein; also called alkaline phosphatase protein

[5] = target: T5, SemaIII-AP fusion protein (full-length Sema III fused at its carboxy terminus to alkaline phosphatase); experiment: equilibrium binding of AP fusion to 293-EBNA cells stably expressing rat SR1, Hill fit
[6] = target: AP fusion protein comprising just the semaphorin domain of SemaIII (AP-S); experiment: as above
[7] = target: T5, SemaIII-AP fusion protein (full-length …); experiment: equilibrium binding of AP fusion to neuropilin-1-expressing cells, Hill fit

T4 sequence (P05187 23-511 limits assumed): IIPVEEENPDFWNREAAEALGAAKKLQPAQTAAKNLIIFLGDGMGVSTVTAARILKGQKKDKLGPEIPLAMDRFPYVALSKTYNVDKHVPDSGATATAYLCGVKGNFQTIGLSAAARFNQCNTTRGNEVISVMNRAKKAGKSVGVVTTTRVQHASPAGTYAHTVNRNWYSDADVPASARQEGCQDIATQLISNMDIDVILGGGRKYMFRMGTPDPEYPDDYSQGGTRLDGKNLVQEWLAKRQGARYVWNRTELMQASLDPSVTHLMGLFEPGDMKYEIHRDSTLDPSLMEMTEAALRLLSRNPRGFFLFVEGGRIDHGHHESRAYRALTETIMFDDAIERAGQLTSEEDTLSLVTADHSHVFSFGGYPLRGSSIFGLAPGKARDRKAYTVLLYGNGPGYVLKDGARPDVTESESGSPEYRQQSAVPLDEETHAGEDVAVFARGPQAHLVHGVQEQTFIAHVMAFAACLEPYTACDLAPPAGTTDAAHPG

binding result [1]: binds | binding result [2]: no binding | binding result [3]: no binding | binding result [4]: no binding
B1: mouse neuropilin-2(b5), myc-tagged, expressed in COS-7 cells (receptor, not shown: small tags and cut ends)
chain: RSQQDPPCGGRPNSKDAGYITSPGYPQDYPSHQNCEWIVYAPEPNQKIVLNFNPHFEIEKHDCKYDFIEIRDGDSESADLLGKHCGNIAPPTIISSGSVLYIKFTSDYARQGAGFSLRYEIFKTGSEDCSKNFTSPNGTIESPGFPEKYPHNLDCTFTILAKPRMEIILQFLTFDLEHDPLQVGEGDCKYDWLDIWDGIPHVGPLIGKYCGTKTPSKLRSSTGILSLTFHTDMAVAKDGFSARYYLIHQEPPENFQCNVPLGMESGRIANEQISASSTFSDGRWTPQQSRLHGDDNGWTPNLDSNKEYLQVDLRFLTMLTAIATQGAISRETQKGYYVKSYKLEVSTNGEDWMVYRHGKNHKIFQANNDATEVVLNKLHMPLLTRFIRIRPQTWHLGIALRLELFGCRVTDAPCSNMLGMLSGLIADTQISASSTREYLWSPSAARLVSSRSGWFPRNPQAQPGEEWLQVDLGTPKTVKGVIIQGARGGDSITAVEARAFVRKFKVSYSLNGKDWEYIQDPRTQQTKLFEGNMHYDTPDIRRFDPVPAQYVRVYPERWSPAGIGMRLEVLGCDWTDSKPTVETLGPTVKSEETTTPYPMDEDATECGENCSFEDDKDLQLPSGFNCNFDFPEETCGWVYDHAKWLRSTWISSANPNDRTFPDDKNFLKLQSDGRREGQYGRLISPPVHLPRSPVCMEFQYQAMGGHGVALQVVREASQESKLLWVIREDQGSEWKHGRIILPSYDMEYQIVFEGVIGKGRSGEISIDDIRISTDVPLENCMEPISAFAGEDFKGGTLPPGTEPTVDTVPVQPIPAYWYYVMAAGGAVLVLASVVLALVLHYHRFRYAAKKTDHSITYKTSHYTNGAPLAVEPTLTIKLEQERGSHC
notes: also called b5 isoform of neuropilin-2; SR2(b)5

Kd [5]: 0.0553 µg/mL and 0.325 nM | Kd [6]: 0.219 µg/mL and 1.45 nM
B2: rat semaphorin receptor 1 (rSR1), full length, expressed on cells (receptor)
chain: FRSDKCGGTIKIENPGYLTSPGYPHSYHPSEKCEWLIQAPEPYQRIMINFNPHFDLEDRDCKYDYVEVIDGENEGGRLWGKFCGKIAPSPVVSSGPFLFIKFVSDYETHGAGFSIRYEIFKRGPECSQNYTAPTGVIKSPGFPEKYPNSLECTYIIFAPKMSEIILEFESFDLEQDSNPPGGMFCRYDRLEIWDGFPEVGPHIGRYCGQKTPGRIRSSSGILSMVFYTDSAIAKEGFSANYSVLQSSISEDFKCMEALGMESGEIHSDQITASSQYGTNWSVERSRLNYPENGWTPGEDSYREWIQVDLGLLRFVTAVGTQGAISKETKKKYYVKTYRVDISSNGEDWITLKEGNKAIIFQGNTNPTDVVFGVFPKPLITRFVRIKPASWETGISMRFEVYGCKITDYPCSGMLGMVSGLISDSQITASNQGDRNWMPENIRLVTSRTGWALPPSPHPYINEWLQVDLGDEKIVRGVIIQGGKHRENKVFMRKFKIAYSNNGSDWKMIMDDSKRKAKSFEGNNNYDTPELRAFTPLSTRFIRIYPERATHSGLGLRMELLGCEVEVPTAGPTTPNGNPVDECDDDQANCHSGTGDDFQLTGGTTVLATEKPTIIDSTIQSEFPTYGFNCEFGWGSHKTFCHWEHDSHAQLRWRVLTSKTGPIQDHTGDGNFIYSQADENQKGKVARLVSPVVYSQSSAHCMTFWYHMSGSHVGTLRVKLHYQKPEEYDQLVWMVVGHQGDHWKEGRVLLHKSLKLYQVIFEGEIGKGNLGGIAVDDISINNHIPQEDCAKPTDLDKKNTEIKIDETGSTPGYEEGKGDKNISRKPGNVLKTLDPILITIIAMSALGVLLGAVCGVVLYCACWHNGMSERNLSALENYNFELVDGVKLKKDKLNPHSNYSEA
notes: also called rat SR1; p28

Kd [7]: 0.325 nM
B3: neuropilin-1 transiently expressed in COS-7 cells (receptor)
chain: FRSDKCGGTIKIENPGYLTSPGYPHSYHPSEKCEWLIQAPEPYQRIMINFNPHFDLEDRDCKYDYVEVIDGENEGGRLWGKFCGKIAPSPVVSSGPFLFIKFVSDYETHGAGFSIRYEIFKRGPECSQNYTAPTGVIKSPGFPEKYPNSLECTYIIFAPKMSEIILEFESFDLEQDSNPPGGVFCRYDRLEIWDGFPEVGPHIGRYCGQKTPGRIRSSSGILSMVFYTDSAIAKEGFSANYSVLQSSISEDFKCMEALGMESGEIHSDQITASSQYGTNWSVERSRLNYPENGWTPGEDSYREWIQVDLGLLRFVTAVGTQGAISKETKKKYYVKTYRVDISSNGEDWITLKEGNKAIIFQGNTNPTDVVFGVFPKPLITRFVRIKPASWETGISMRFEVYGCKITDYPCSGMLGMVSGLISDSQITASNQGDRNWMPENIRLVTSRTGWALPPSPHPYINEWLQVDLGDEKIVRGVIIQGGKHRENKVFMRKFKIAYSNNGSDWKMIMDDSKRKAKSFEGNNNYDTPELRAFTPLSTRFIRIYPERATHSGLGLRMELLGCEVEVPTAGPTTPNGNPVDECDDDQANCHSGTGDDFQLTGGTTVLATEKPTIIDSTIQSEFPTYGFNCEFGWGSHKTFCHWEHDSHAQLRWRVLTSKTGPIQDHTGDGNFIYSQADENQKGKVARLVSPVVYSQSSAHCMTFWYHMSGSHVGTLRVKLHYQKPEEYDQLVWMVVGHQGDHWKEGRVLLHKSLKLYQVIFEGEIGKGNLGGIAVDDISINNHIPQEDCAKPTDLDKKNTEIKIDETGSTPGYEEGKGDKNISRKPGNVLKTLDPILITIIAMSALGVLLGAVCGVVLYCACWHNGMSERNLSALENYNFELVDGVKLKKDKLNPQSNYSEA
notes: also called npn-1; SR1

Reference: patent publication US6623738 (University of California, dated 2003)
